The experiment deals with […]-para-nitroanilide (TQ6-pNA) peptide substrate. The experiment in a line: ITC. In general terms: ITC needs no label: the signal is the heat of the interaction.

One may read the Kd as the free concentration of one partner at which half of the binding sites on the other are occupied at equilibrium, for simple one-to-one binding.

B1: MERS-CoV main protease (M^pro), wild type, authentic N-terminus (enzyme)
chain: SGLVKMSHPSGDVEACMVQVTCGSMTLNGLWLDNTVWCPRHVMCPADQLSDPNYDALLISMTNHSFSVQKHIGAPANLRVVGHAMQGTLLKLTVDVANPSTPAYTFTTVKPGAAFSVLACYNGRPTGTFTVVMRPNYTIKGSFLCGSCGSVGYTKEGSVINFCYMHQMELANGTHTGSAFDGTMYGAFMDKQVHQVQLTDKYCSVNVVAWLYAAILNGCAWFVKPNRTSVVSFNEWALANQFTEFVGTQSVDMLAVKTGVAIEQLLYAIQQLYTGFQGKQILGSTMLEDEFTPEDVNMQIMGVVMQ
Turning to B1, binding was characterised by a dissociation constant (Kd) of 20.3 µM.
